Assay results published in the DeepSol protein solubility set.

Test: soluble on expression in E. coli; label from the status in PepcDB or PDB records
With “EPRRPRAGPEELGKILQGVVVVLSGFQNPFRSELRDKALELGAKYRPDWTRDSTHLICAFANTPKYSQVLGLGGRIVRKEWVLDCHRMRRRLPSQRYLMAGPGSSSEEDEASHSGG” the “soluble on expression in E. coli” value was “soluble”. With “EQELSYFAVFRRVYVQRDEVRQIASIVQRGERDHTFRVGSLIFHTIGQLLPQQMQAFHSPKALFPVGYEASRLYWSTRYANRRCRYLCSIEEKDGRPVFVIRIVEQGHEDLVLSDISPKGVWDKILEPVACVRKKSEMLQLFPAYLKGEDLFGLTVSAVARIAE” the “soluble on expression in E. coli” value was “not soluble”. With “EQGREPSWGFTEKSRTRDIPETLVPLITVTPSTELYRITGWGALEGHKVFYHETYINPEVAPGFIEQLENHSFSAVWEKCYQKETVVKKLIFKPVRMPGDISKYLGGSAGMPAILIEKHRADQQGNIVQIDIEYWRFEAVDLIINL” the “soluble on expression in E. coli” value was “not soluble”. For “EQLPVLQTVPFAGSAEPVSLTRESVERSVGEANMQEQRKRVHAMLRDYELQLRINSDASQQDAHLTPDSE”, the “soluble on expression in E. coli” value was “not soluble”. In the case of “ESKLEGKAAQDIKDEEPGDLGRPKPECEGYDPNALYCICRQPHNNRFMICCDRCEEWFHGDCVGISEARGRLLERNGEDYICPNCTILQVQDETHSETADQQEAKWRPGDADGTDCTSIGTIEQKSSEDQGIKGRIEKAANPSGKKKLKIFQPGPGPVPTQLPVLWQVLEIAVSRSISAFTLLHCISCKVIEAPGASKCIGPGCCHVAQPDSVYCSNDCILKHAAATMKFLSSGKEQKPKPKEKMKMKPEKPSLPKCGAQAGIKISSVHKRPAPEKKETTVKKAVVVPARSEALGKEAACESSTPSWASDHNYNAVKPEKTAAPSPSLLYKSTKEDRRSEEKAAATAASKKTAPPGSTVGKQPAPRNLVPKKSSFANVAAATPAIKKPPSGFKGTIPKRPWLSATPSSGASAARQAGPAPAAATAASKKFPGSAALVGAVRKPVVPSVPMASPAPGRLGAMSAAPSQPNSQIRQNIRRSLKEILWKRVNDSDDLIMTENEVGKIALHIEKEMFNLFQVTDNRYKSKYRSIMFNLKDPKNQGLFHRVLREEISLAKLVRLKPEELVSKELSTWKERPARSVMESRTKLHNESKKTAPRQEAIPDLEDSPPVSDSEEQQESARAVPEKSTAPLLDVFSSMLKDTTSQHRAHLFDLNCKICTGQVPSAEDEPAPKKQKLSASVKKEDLKSKHDSSAPDPAPDSADEVMPEAVPEVASEPGLESASHPNVDRTYFPGPPGDGHPEPSPLEDLSPCPASCGSGVVTTVTVSGRDPRTAPSSSCTAVASAASRPDSTHMVEARQDVPKPVLTSVMVPKSILAKPSSSPDPRYLSVPPSPNISTSESRSPPEGDTTLFLSRLSTIWKGFINMQSVAKFVTKAYPVSGCFDYLSEDLPDTIHIGGRIAPKTVWDYVGKLKSSVSKELCLIRFHPATEEEEVAYISLYSYFSSRGRFGVVANNNRHVKDLYLIPLSAQDPVPSKLLPFEGPGKRRLSGWR”, the “soluble on expression in E. coli” value is reported as “soluble”. For “ESKSPIIQNVLSYITEHFSEGMSLKTLGNDFHINAVYLGQLFQKEMGEHFTDYLNRYRVNYAKEELLQTKDNLTIIAGKSGYTDMAYFYRQFKKHTGETPNRYRKIHQ”, the “soluble on expression in E. coli” value was “soluble”. For “ESLSGEDAFPYRHQIVEIPPIELIVIEHRLHQLTCGQCGTNTRAKLPDDVNPSEYGVRVVAMVALLSGVYRNSQRMVQSALADLFGISMSLGTVNTLRIEANNAVANCVDEAKLYVQHSNVVGADETGFNQGNIDGGNPKQRQAWLWVGVTPLVTFFEVALTRCTSAVKNLLGENFAGILTSDRHGAYNWVDI”, the “soluble on expression in E. coli” value was “not soluble”. In the case of “ESNDSGIVVYNAQHENLVKSWVDGFTKDTGIKVTLRNGGDSELGNQLVQEGSASPADVFLTENSPAMVLVDNAKLFAPLDAVTQAQVAQEYRPEHGRWTGIAARSTVFVYNPEKISEAELPKSIMDLAKPEWKGRWAASPSGADFQAIVSAMLELKGEKATLEWLKAMKTNFTAYKGNSTVMKAVNAGQIDGGVIYHYYRFVDQAKTGENSGKTQLHYFKHQDPGAFVSISGGGVLASSKHPKEAQEFVKWITGKSGQDILRTNNAFEYAVGVDAASNPKLVPLKDLDAPKVEPSKLNSKKVVELMTEAGLL”, the “soluble on expression in E. coli” value is reported as “soluble”. In the case of “ESRSQISRRNQDMLLSVLDLEKVSVNDIMVPRNEIVGIDINDDWKSIVRQLTHSPHGRIVLYRDSLDDAISMLRVREAYRLMTEKKEFTKEIMLRAADEIYFVPEGTPLSTQLVKFQRNKKKVGLVVDEYGDIQGLVTVEDILEEIVGDFTTSMSPTLAEEVTPLNDGTVIIDGSANVREINKAFNWHLPEDEARTVNGII”, the “soluble on expression in E. coli” value is reported as “soluble”.
